In patent publication US20060257938A1, “Method of screening for drugs that block ligand binding to a lipid binding protein” (priority 2005, published 2006):

B1: 60T 104T 115W 74F 72A (protein, listed as Rattus norvegicus)
chain: AFDGTWKVDRNENYEKFMEKMGINVVKRKLGAHDNLKLTITQEGNKFTVKESSNFRNIDTVFELGVDFAYSAAFGTELTGTWTMEGNKLVGKFKRVDNGKELITVREISGNELIWTYTYEGVEAKRIFKKE
modifications: PEPTIDE (1)...(131) wild-type rat intestinal fatty acid binding protein
B2: 72V 73L 74W (protein, listed as Rattus norvegicus)
chain: AFDGTWKVDRNENYEKFMEKMGINVVKRKLGAHDNLKLTITQEGNKFTVKESSNFRNIDVVFELGVDFAYSVLWGTELTGTWTMEGNKLVGKFKRVDNGKELIAVREISGNELIQTYTYEGVEAKRIFKKE
modifications: PEPTIDE (1)...(131) wild-type rat intestinal fatty acid binding protein
B3: 21F 78I 102F 72A (protein, listed as Rattus norvegicus)
chain: AFDGTWKVDRNENYEKFMEKFGINVVKRKLGAHDNLKLTITQEGNKFTVKESSNFRNIDVVFELGVDFAYSAADGTEITGTWTMEGNKLVGKFKRVDNGKEFIAVREISGNELIQTYTYEGVEAKRIFKKE
modifications: PEPTIDE (1)...(131) wild-type rat intestinal fatty acid binding protein
B4: 72G 73W 74E (protein, listed as Rattus norvegicus)
chain: AFDGTWKVDRNENYEKFMEKMGINVVKRKLGAHDNLKLTITQEGNKFTVKESSNFRNIDVVFELGVDFAYSGWEGTELTGTWTMEGNKLVGKFKRVDNGKELIAVREISGNELIQTYTYEGVEAKRIFKKE
modifications: PEPTIDE (1)...(131) wild-type rat intestinal fatty acid binding protein
B5: 72A 73W 74E (protein, listed as Rattus norvegicus)
chain: AFDGTWKVDRNENYEKFMEKMGINVVKRKLGAHDNLKLTITQEGNKFTVKESSNFRNIDVVFELGVDFAYSAWEGTELTGTWTMEGNKLVGKFKRVDNGKELIAVREISGNELIQTYTYEGVEAKRIFKKE
modifications: PEPTIDE (1)...(131) wild-type rat intestinal fatty acid binding protein
B6: 72T 73W 74S (protein, listed as Rattus norvegicus)
chain: AFDGTWKVDRNENYEKFMEKMGINVVKRKLGAHDNLKLTITQEGNKFTVKESSNFRNIDVVFELGVDFAYSTWSGTELTGTWTMEGNKLVGKFKRVDNGKELIAVREISGNELIQTYTYEGVEAKRIFKKE
modifications: PEPTIDE (1)...(131) wild-type rat intestinal fatty acid binding protein
B7: 72S 73W 74E (protein, listed as Rattus norvegicus)
chain: AFDGTWKVDRNENYEKFMEKMGINVVKRKLGAHDNLKLTITQEGNKFTVKESSNFRNIDVVFELGVDFAYSSWEGTELTGTWTMEGNKLVGKFKRVDNGKELIAVREISGNELIQTYTYEGVEAKRIFKKE
modifications: PEPTIDE (1)...(131) wild-type rat intestinal fatty acid binding protein
B8: 72A 73W 74S (protein, listed as Rattus norvegicus)
chain: AFDGTWKVDRNENYEKFMEKMGINVVKRKLGAHDNLKLTITQEGNKFTVKESSNFRNIDVVFELGVDFAYSAWSGTELTGTWTMEGNKLVGKFKRVDNGKELIAVREISGNELIQTYTYEGVEAKRIFKKE
modifications: PEPTIDE (1)...(131) wild-type rat intestinal fatty acid binding protein
B9: 72S 73W 74N (protein, listed as Rattus norvegicus)
chain: AFDGTWKVDRNENYEKFMEKMGINVVKRKLGAHDNLKLTITQEGNKFTVKESSNFRNIDVVFELGVDFAYSSWNGTELTGTWTMEGNKLVGKFKRVDNGKELIAVREISGNELIQTYTYEGVEAKRIFKKE
modifications: PEPTIDE (1)...(131) wild-type rat intestinal fatty acid binding protein
B10: 72S 73W 74S (protein, listed as Rattus norvegicus)
chain: AFDGTWKVDRNENYEKFMEKMGINVVKRKLGAHDNLKLTITQEGNKFTVKESSNFRNIDVVFELGVDFAYSSWSGTELTGTWTMEGNKLVGKFKRVDNGKELIAVREISGNELIQTYTYEGVEAKRIFKKE
modifications: PEPTIDE (1)...(131) wild-type rat intestinal fatty acid binding protein
B11: 73W 72A 74F (protein, listed as Rattus norvegicus)
chain: AFDGTWKVDRNENYEKFMEKMGINVVKRKLGAHDNLKLTITQEGNKFTVKESSNFRNIDVVFELGVDFAYSAWFGTELTGTWTMEGNKLVGKFKRVDNGKELIAVREISGNELIQTYTYEGVEAKRIFKKE
modifications: PEPTIDE (1)...(131) wild-type rat intestinal fatty acid binding protein
B12: 72T 73W 74E (protein, listed as Rattus norvegicus)
chain: AFDGTWKVDRNENYEKFMEKMGINVVKRKLGAHDNLKLTITQEGNKFTVKESSNFRNIDVVFELGVDFAYSTWEGTELTGTWTMEGNKLVGKFKRVDNGKELIAVREISGNELIQTYTYEGVEAKRIFKKE
modifications: PEPTIDE (1)...(131) wild-type rat intestinal fatty acid binding protein
B13: 21F 78V 102V 72A (protein, listed as Rattus norvegicus)
chain: AFDGTWKVDRNENYEKFMEKFGINVVKRKLGAHDNLKLTITQEGNKFTVKESSNFRNIDVVFELGVDFAYSAADGTEVTGTWTMEGNKLVGKFKRVDNGKEVIAVREISGNELIQTYTYEGVEAKRIFKKE
modifications: PEPTIDE (1)...(131) wild-type rat intestinal fatty acid binding protein

What was measured:
Assay type in all cases: binding
[1] = Probe fluorescence ratio response to palmitic acid relative to ADIFAB2; details: response relative to ADIFAB2
Summary of the method: (§1)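 Fluorescently labeled rat intestinal FABP variants were read at two emission wavelengths, near the unbound maximum (about 420 to 480 nm) and the FFA-bound maximum (about 495 to 580 nm). R = Fλ1/Fλ2 after subtracting probe-free intensity; ΔR = R+agent − R0, normalized to ADIFAB2 (rI-FABP-L72A).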

[2] = Probe fluorescence ratio response to linoleic acid relative to ADIFAB2; details: response relative to ADIFAB2
Summary of the method: as §1

[3] = Probe fluorescence ratio response to linolenic acid relative to ADIFAB2; details: response relative to ADIFAB2
Summary of the method: as §1

[4] = Probe fluorescence ratio response to palmitoleic acid relative to ADIFAB2; details: response relative to ADIFAB2
Description: (§2) In an alternate preferred embodiment, the protein is rI-FABP that has Ala substituted for Leu at position 72 (rI-FABP-L72A) with the resulting probe named ADIFAB2. […] Other probes useful in embodiments of the invention are shown in Tables 1-6 and are also described in U.S. application Ser. No. 11/085,792, filed Mar. 21, 2005 which is incorporated herein by reference. The indicated substitutions are with reference to the ADIFAB protein of SEQ ID NO: 2.
(§3) ADIFAB2 also has an altered spectral response, making it especially useful for measurements of FFAu in blood samples (Apple et al, Clinical Proteomics, (2004) 1:41-44, U.S. patent application Ser. No. 10/670,958). The wavelengths at the maximum intensities emitted by these fluorescently-labeled I-FABP's in the absence of FFA is about 420 to 480 nm. The emission wavelengths at the maximum intensities emitted by these fluorescently-labeled I-FABP's with FFA bound are between about 495 to 580 nm. Experiments typically involve measuring the fluorescence response within both emission maxima or at wavelengths for which the effect of interfering molecules such as hemoglobin can be eliminated as described in U.S. application Ser. No. 10/670958 and PCT/US2004/030521 and the calculation of the ratio ‘R’ of the two fluorescence intensities. The baseline value for this ratio, measured in the absence of analyte, is designated R0.
(§4) The intensity ratio (“R” value) is determined as follows. The ratio is calculated using the following formula: R=Fλ1/Fλ2 wherein, Fλ1 is the measured fluorescence intensities (intensity of sample with probe present minus intensity of sample without probe present) at wavelength 1 and Fλ2 is the measured fluorescence intensities (intensity of sample with probe present minus intensity of sample without probe present) at wavelength 2. Then, for a given probe, ΔR, the difference in R value between the measurement in the presence of the test compound (agent) and in the absence of the test compound (agent), is calculated as follows: ΔR=R+agent−R0 In some embodiments, the ΔR value may then be compared to some reference, for example, an agent with a known affinity for a given probe, by ΔR/ΔRreference. Measurements of fluorescence intensities are obtained using standard techniques.

[5] = Probe fluorescence ratio response to arachidonic acid relative to ADIFAB2; details: arachidonic acid; response relative to ADIFAB2
Summary of the method: as §1

[6] = Probe fluorescence ratio response to oleic acid relative to ADIFAB2; details: response relative to ADIFAB2
Summary of the method: as §1

[7] = Probe fluorescence ratio response to stearic acid relative to ADIFAB2; details: response relative to ADIFAB2
Description: as §2, §3, §4

| Molecule | DR/DR PA [1] | DR/DR LA [2] | DR/DR LNA [3] | DR/DR POA [4] | DR/DR AA [5] | DR/DR OA [6] | DR/DR SA [7] |
| --- | --- | --- | --- | --- | --- | --- | --- |
| B1 | 1.920 | 1.609 | 2.017 | 2.511 | 0.873 | 1.149 | 0.633 |
| B2 | 1.276 | 1.225 | 1.209 | 1.710 | 0.500 | 0.648 | 0.348 |
| B3 | 2.383 | 2.872 | 3.006 | 2.788 | 4.836 | 3.312 | 2.367 |
| B4 | 3.944 | 5.045 | 5.501 | 6.069 | 4.229 | 2.755 | 0.955 |
| B5 | 4.937 | 4.686 | 5.422 | 6.615 | 4.093 | 3.277 | 1.289 |
| B6 | 4.155 | 4.612 | 4.826 | 5.826 | 4.129 | 4.177 | 1.620 |
| B7 | 4.210 | 4.079 | 4.799 | 6.109 | 3.751 | 3.212 | 1.285 |
| B8 | 4.039 | 3.806 | 4.401 | 4.864 | 3.211 | 3.155 | 1.095 |
| B9 | 3.333 | 3.977 | 4.220 | 4.867 | 3.770 | 3.490 | 1.255 |
| B10 | 3.536 | 3.787 | 4.147 | 4.656 | 3.545 | 2.863 | 1.106 |
| B11 | 3.264 | 3.718 | 3.875 | 5.256 | 3.378 | 3.255 | 1.485 |
| B12 | 3.842 | 3.254 | 3.818 | 5.353 | 2.442 | 2.200 | 0.877 |
| B13 | 2.756 | 4.204 | 3.775 | 3.365 | 4.511 | 4.223 | 3.120 |
